The numbers were not newly measured in publication PMC7527559, which cites them from elsewhere.

As usually defined, the Kd is the equilibrium constant for the complex coming apart.

Like-named read-outs stand apart in the source and are kept apart here.

Data set [1] concerns the target RNA polymerase (Escherichia coli) (UniProt P0A7Z4).
Data set [2] has the same target. The source holds these as a separate data set.

Chain of DksA (P0ABS1 whole entry): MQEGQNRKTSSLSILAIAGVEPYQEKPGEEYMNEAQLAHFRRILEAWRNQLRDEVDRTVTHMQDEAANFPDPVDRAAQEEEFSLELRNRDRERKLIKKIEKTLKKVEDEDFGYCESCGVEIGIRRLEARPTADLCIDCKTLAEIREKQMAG
Chain of GreA (P0A6W5 whole entry): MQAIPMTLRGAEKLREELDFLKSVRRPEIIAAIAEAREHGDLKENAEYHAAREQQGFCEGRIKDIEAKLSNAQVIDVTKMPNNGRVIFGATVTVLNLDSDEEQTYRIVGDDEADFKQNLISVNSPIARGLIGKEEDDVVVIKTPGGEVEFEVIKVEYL

Turning to DksA (from UniProt P0ABS1), in data set [1], the Kd was 100 nM.

Regarding GreA (from UniProt P0A6W5), the Kd in data set [2] is 800 nM.
